In the DeepSol protein solubility set:

Assay: soluble on expression in E. coli; label from the status in PepcDB or PDB records

Sequence | soluble on expression in E. coli
MARLFTLSESKYYLMALDAGTGSIRAVIFDLEGNQIAVGQAEWRHLAVPDVPGSMEFDLNKNWQLACECMRQALHNAGIAPEYIAAVSACSMREGIVLYNNEGAPIWACANVDARAAREVSELKELHNNTFENEVYRATGQTLALSAIPRLLWLAHHRSDIYRQASTITMISDWLAYMLSGELAVDPSNAGTTGLLDLTTRDWKPALLDMAGLRADILSPVKETGTLLGVVSSQAAELCGLKAGTPVVVGGGDVQLGCLGLGVVRPAQTAVLGGTFWQQVVNLAAPVTDPEMNVRVNPHVIPGMVQAESISFFTGLTMRWFRDAFCAEEKLIAERLGIDTYTLLEEMASRVPPGSWGVMPIFSDRMRFKTWYHAAPSFINLSIDPDKCNKATLFRALEENAAIVSACNLQQIADFSNIHPSSLVFAGGGSKGKLWSQILADVSGLPVNIPVVKEATALGCAIAAGVGAGIFSSMAETGERLVRWERTHTPDPEKHELYQDSRDKWQAVYQDQLGLVDHGLTTSLWKAPGL | not soluble
FPELMPLRTQWTTIRDEALALQRIQKIRAAEGHTDAGFNSFFRRGWKRFYLKWYGTTHPSAIALCPKTTALLKNIPAIKAAMFAELPPGGDLRPHRDPFAGSMRLHLGLATPNHTSCFIDVDGQRYSWHDGEWVMFDETYIHYARNDTEHNRIILFCDIERPMRWRWAQALNRFVAKHLLAAGTSPN | not soluble
MMIENLLIELLTEELPPKSLDKLGNAFAAVIADSLKSQNLTTPDTILTAFASPRRLAVHLTAIPAQAPDQVVALKLMPITVGLDAQGQPTPALHKKLAALGMENVDASALKRVQESKAEMLFLEQNVTGILLAAGLQKAMEDAIRQLPVSKVMTYQLDDGWENVHFVRPVHGLIALHGQKIIPVSAFGLTAGNTTRGHRFEVKQTELIIDHADRYASLLETEGAVIPGFDRRRSWIREGLEAAASAVQLRCISDEVLLDEVTALVEYPNILMGAFPTDFLEVPQECLISTMKINQKYFPLLDTDGKLTNQFLIVANITPADPGQIISGNERVIRSRLADAKFFFDHDRKRTLASRLPDLDKVIYHHQLGSQGERTRYVQTLARIIGRLLGDDNLAGQADQAAMLAKADLLTDMVGEFPELQGIMGRYYARFEGMDETIAFAIEDHYKPRFAGDVLPRSMAGICVALADKLETLISLFSIGQLPTGDKDPYALRRHALGVIRILIEKNLPIGLDVLISRAADVLQDEMIGKQDSGPGHARPVTPQLVGQLQDFFYDRLAASLRDQGYTAQEVEAVLNLRPSL | not soluble
MGSDKIHHHHHHMSSSPSTLNFGSMTDVFGFLIEIDKLKSVQRRTKIIGSERHEDSAEHSWHFAVAAMALAPYAGEGVDIQRVIQMALIHDIVEIDAGDVIVYDLSARLAIHDQEVAAAARIFGLLPEPQRQQFQDLWEEYEANETPSAQFALVLDRVMPMLMNLYNGGQSWVENGIRLEQVLDRAEFIATINPELWQYMKQHLEDAKAKGWLL | not soluble
MRIRIAHSPDSDDAFMFYPLVKGLIDTEGLEIEHVLADIETLNREALKGTYEVSAISFHAYPYVADKYAVLPSGGSIGEGYGPIVVAREELGTLKGKKIAVPGELTTAFLTLKLYEPDFEHVVIPFDRIIQAVLEGKVDAGLVIHEGQLSYKDYGLKKIVDLGEWWKEKYGLPLPLGCNVVRKDLGREVVKKIERLMRESVEYALKERKRALEYAINYARDLSEDLERTQKFVSMYVNERTVDYGEDGREAVRLLLRLGKERGIIKAEIPEKIFSDELF | soluble
MILQEAKIRAKELEIGAKSKYENETSKVIKEYESYLIKLEKQEAKNQQRLERETQQLEEERRRINHKQASLSGMIEELEKLKGDYRSKLTESLEILSRVAGLTQEEAKELALAKATEESRAQIAQIVRKYESEAKEEGRKRANYILAQATTRFAGEFAAERLINVVNLPNDELKGRIIGKEGRNIKTLEMLSGVDVIIDDTPGAIVLSSFNLYRRAIATRTIEALVEDGRIQPARIEEVYKKVEQEFEEKVLEEGEGIVLDMELGYVHPELKKLIGRLKYRASYGQNALGHSLEVANLAGVIAGELGGDVKLAKRAGLLHDIGKALTHDFGGSHVDLGAEVCSRYKEHPVVINAIFAHHGHEEAKSIESAAVCAADALSAARPGARREVLESFLKRVQEIEKIAMEKLGVRQAYAINAGREVRVIVNADLINDEESVLLAQEIAKEIETKVQYPGEIKVSVIREVRAVEFAK | not soluble
AAKRMKKRIKSATFFTTLLDFSQPGEVGAYINDTIISAIETQNNAKGYMDGRSLSVTFSLLRENSLYWNYYVDNYLKGNSPVDFDLLYWNSDSTNVSAASHNFLLRELYLENKLVQDKGVKIGGVWIDLNKIKIPSYFVSTKEDHIALWQGTYRGALHTGGNKTFVLGESGHIAGIVNHPAKNKYGYWLNDTLDDS | not soluble
MNASLYQQYVQAKAEHPGKYARDLATLMGISEAELTHSRVGHDAKRLQSDARALLAALESVGEVKAITRNTYAVHEQVGRYENQHLNGHAGLILNPRALDLRLFLNQWASAFTLTEETRHGVRHSIQFFDHQGDALHKVYVTEQTDMSAWEALLAQFIIPENPALQLEPLSTPEAVEPTADDATVDSEWRAMTDVHQFFQLLKRNNLTRQQAFRAVGDDLAYQVDNNSLTQLLHIAQQDQNEIMIFVGNRGCVQIFTGLIEKVTPHNEWINVFNQRFTLHLIETAIAESWITRKPTKDGFVTSLELFAADGTQLAQLYGQRTEGQPEQNQWREQIARLINKDIAA | not soluble
VPPPGTMVMVERKVGSWVDGQPIDLQRDWRSWEQLPDSLKVAVIAGEDQHFAEHHGFDLPAIQQALAHNERGGSIRGASTLSQQVAKNVFLWSGRSWLRKGLEAWFTLLIETLWTKQRILEVYLNSAEWGPGVFGAQAAARYHFGLDAERLSRTQASQLAAVLPSPLKWSAARPGPYVRQRAAWIRQQMWQLGGDDYLLRLER | not soluble
ATADPGVRAMDYQQATDVVIARGLSQRGVPFSWAGGGINGPTRGTGTGANTVGFDASGLMQYAYAGAGIKLPRSSGAMYRVGQKILPQQARKGDLIFYGPEGTQSVAMYLGNNQMLEVGDVVQVSPVRTAGMAPYMVRVLGT | soluble
QLPPGTFIPYGLSLESATGVNFLTPTSFWKQTRMHASKRKLLRNMELLIIDEVSMLRADTLDLIDFVLRRVRSNPRSFGGVQVLFIGDLMQLPPVVKPHEWE | not soluble
MTPEIKVKSMRSVGTQVDVQCITYGLAGFDSVFKHCGVFSGEEHNVSSIWKGPVRMVERKTETESFEISQYGETVFKPSLQLLVGTSDEIAFSLLRHVFSKMDIIELRHYLQVLGFEKTFNLMYNLGEEFIEGEIPVDERILLDEIEALESFTVSNMTIEEEIEARRVERLALKFVEEMYNPDTENDEQIALLLHSEMNDENGDNDLIEEDYFNIANLEESFPGTNKKVVREAYNIAGRKVDFTREILLSNGEVENTYAVKLKPKPTWSKKVASSPSPLRLSLPKKSKKEEENHFLKKRSGRHSQLEEIQLLAIRTRQKIEADRITSSNSMAAAKYRQLIIVDRASRMKIEKSSEVKELDRKIREAHNNPWFLDLHYMSVDGAVKLVKEAIEAVKYHLKAARNLDRRITVVTGSGNNSKCGAKIKPQVLAMLQHNDYNYELVNDGCIRFKV | not soluble
AHHHHHHSSGLEVLFQGPNELNYGQLSISPIFQGGSYQLNNKSIDISSLLLDKLSGESQTVVMKFKADKPNSLQALFGLSNSKAGFKNNYFSIFMRDSGEIGVEIRDAQKGINYLFSRPASLWGKHKGQAVENTLVFVSDSKDKTYTMYVNGIEVFSETVDTFLPISNINGIDKATLGAVNREGKEHYLAKGSIDEISLFNKAISDQEVSTIPLSNPFQLIFQSGDSTQANYFRIPTLYTLSSGRVLSSIDARYGGTHDSKSKINIATSYSDDNGKTWSEPIFAMKFNDYEEQLVYWPRDNKLKNSQISGSASFIDSSIVEDKKSGKTILLADVMPAGIGNNNANKADSGFKEINGHYYLKLKKNGDNDFRYTVRENGVVYNETTNKPTNYTINDKYEVLEGGKSLTVEQYSVDFDSGSLRERHNGKQVPMNVFYKDSLFKVTPTNYIAMTTSQNRGESWEQFKLLPPFLGEKHNGTYLCPGQGLALKSSNRLIFATYTSGELTYLISDDSGQTWKKSSASIPFKNATAEAQMVELRDGVIRTFFRTTTGKIAYMTSRDSGETWSKVSYIDGIQQTSYGTQVSAIKYSQLIDGKEAVILSTPNSRSGRKGGQLVVGLVNKEDDSIDWKYHYDIDLPSYGYAYSAITELPNHHIGVLFEKYDSWSRNELHLSNVVQYIDLEINDLTK | soluble
TPIPHKITSFAEQMRGLRSESKVLELVVIPADHSIAELLKMKENEPVNKLVRVRYAEGEPLQYHTSYIPWKAAPGLAQEECTGSLFELLRTKYNIEISRGTESIEPILTDETISGHLLTNVGAPAFLSESLTYDKNEEVVEYAQIITRGDRTKFTVEQSYHS | not soluble
MAHHHHHHMTERSPALVPAVSLLREELQLLNGVVEGQARSRVYRHHIFFRKASFLRSALRNALPQFARRAADPTDLRTVAGRLLTLTIRCAESATLELSASHIDTVSVALLLLAITSRIGCVLCVVLGRKPETFGKLHFIGSKFGVKYKRSRSEAELAEETIGVATPIRRRTIGGVIEAVIK | not soluble
MGSDKIHHHHHHMYDNDLWFATINLPYRQKLELLRIYKTSDEILYNFKNSELIQKYKFDIEKINYIKDEMKKSGMKIVFWNDDDYPKVLKNYDDMPYGLFYMGNIKKLNELNYNVAIVGSRRCTQYGKDITTIISREISINGIGIISGMARGIDTYAHKICLENNGYTCAVLGCGADVIYPKENKNLYCQIIRNGCIISQYKPNTKPLPYNFPIRNKIISGLSNLVLVTEADIKSGSIITASSALEQGKDVGAVPGSVFSKMSRGTNKLIQDGAHVIKDIDDVFGILNFQKINFKKIRNNSSYSSMPENQRQIYDLVSDKPIHVDDIKRCLNIDIQELYELLFEMQLKNKILCLSGSYYVRVNDCL | not soluble
MGSDKIHHHHHHKAFPLRTVFSEGIYYVCAEDLAPAGVGYIHSNGYHYIVYDNHVLFIKEHETIFDFVEKLSPPLFVDGLLFVPIDALKKVMEGYQMYTKGEKVLIYDSLPIVLSAAKEKNGVTITYTGTIVPDMVSVEKSMGRVRINLSPVVVSLPNVSEDIKVELEKNGLSFIVDVGNFYPDVEYSIGDGKLLFRFLLVEGFFGRLEVADGVVFERKIEEFDEGEKTVVNYLIMDPEKVTIKPVVSENGFGTIERLDEMVKRVGGIAGINGNYFDPVTKFPIGLVVIDGKPYSAMFSGRPVFAITEDNEVFIGRVIVDVTLMVKDVLFLVKGINTLGEGEVLVYTKEFSKEIPKKDDKIYFVVKDSKVSQIGYKSHAEDSEYVVSISKKYEEYLSDLKEGDEVYISLQPNIPLRIKQAVEGGPLLIQNGAPIPDAWEEKARYGGGIAYAKAPRTVIATKDGKLWFLVFEGYNHITRGLTYDELVDFLVSRGFEDAMCVDGGSSSVMAVAGSLFGRTENSTAAIPVGIVVWEKKKTEVGK | not soluble
MRRNGSVPDLNKNDAFRRPPAPKGGVEKRKKGRASGLDGRQKRYVRGAESLGSVLNKEIQRRGWGKDIAGGWVTSNWEELVGAKIAQHTRVEMIKDKKLFITCDSTAWATNLRMMQRQILQVIAEKVGPNIITELRIFGPQAPSWRKGPLHVKGRGPRDTYG | not soluble
MGSDKIHHHHHHMKIHPIPPLQCLVFFDAAARHGNFTRAAEELNVTQGAVSKQVVKLESYLGMQLFVRDAKALHLTRAGQTYAGRIHDMLTGCAEATALVMKEPSPHSITIACASGTAGMFLTPIIADFSHEYPNVAIRILVREGVFNLNPAEFDIGVYYIRDVPPPGMSGIRIIEEEVQAYCAPSYLGRRRVSPHELTNVTLLVAEEQQRQWMSWRDWFHLCDSEIAYKPSRTITANSYPVLLQLALRGHGVLLGWNQMITPLVERSDLVLASDASASFGGAYQLVWPDDRRDTAAVTHFREWLLKRVPWKG | not soluble
